Our source for the DTT-induced aggregation of insulin with F113Y (5:1 substrate to sHsp), reduction in the peak level of light scattering and heat-induced (55 °C) aggregation of MDH with R116C, reduction of light scatter values is paper PMC10778692.

One experiment has as its target T1, L-Malate dehydrogenase (UniProt P00346).
T1 sequence: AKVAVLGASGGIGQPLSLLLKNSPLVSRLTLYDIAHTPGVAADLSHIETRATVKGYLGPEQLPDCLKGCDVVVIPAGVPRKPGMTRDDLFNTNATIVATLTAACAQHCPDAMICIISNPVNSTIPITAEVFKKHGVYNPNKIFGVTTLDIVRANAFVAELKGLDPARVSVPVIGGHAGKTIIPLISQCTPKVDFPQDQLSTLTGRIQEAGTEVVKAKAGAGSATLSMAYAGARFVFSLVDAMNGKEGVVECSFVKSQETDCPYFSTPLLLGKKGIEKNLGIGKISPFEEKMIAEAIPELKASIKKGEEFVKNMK

B1: HspB5 F113Y (natural protein)
chain: MDIAIHHPWIRRPFFPFHSPSRLFDQFFGEHLLESDLFPTSTSLSPFYLRPPSFLRAPSWFDTGLSEMRLEKDRFSVNLDVKHFSPEELKVKVLGDVIEVHGKHEERQDEHGYISREFHRKYRIPADVDPLTITSSLSSDGVLTVNGPRKQVSGPERTIPITREEKPAVTAAPKK
B1 gave a DTT-induced aggregation of insulin with F113Y (5:1 substrate to sHsp), reduction in the peak level of light scattering at 340 nm with insulin above 50%.

B2: HspB5 R116C (natural protein)
chain: MDIAIHHPWIRRPFFPFHSPSRLFDQFFGEHLLESDLFPTSTSLSPFYLRPPSFLRAPSWFDTGLSEMRLEKDRFSVNLDVKHFSPEELKVKVLGDVIEVHGKHEERQDEHGFISCEFHRKYRIPADVDPLTITSSLSSDGVLTVNGPRKQVSGPERTIPITREEKPAVTAAPKK
For B2, the heat-induced (55 °C) aggregation of MDH with R116C, reduction of light scatter at 340 nm against substrate alone in the experiment with L-Malate dehydrogenase amounted to 16%.
